Laboratory results reported in patent publication US20180072815A1.

Biological target: commercially available anti-Stat3 antibody (Abcam)
Experiment: ELISA, antibody coated directly at 1 µg/mL

**Q.** Which OD450 Values does the source give for his-probe (H-3) biotin labeled antibody here?
**A.** 0.018 OD450
